Laboratory results published in US20190300623A1 (POLYTHERICS, published 2019).
Numbering of substitutions follows the chain as printed. Read-outs that look alike come from different tables or passages of the source.

B1: AB-02-mc-val-cit-PAB-MMAE (antibody, human IgG1, V domains shown)
VH: EVQLVQSGAEVKKPGASVKVSCKASGYTFTEYTIHWVRQAPGKGLEWIGNINPNNGGTTYNQKFEDRVTITVDKSTSTAYMELSSLRSEDTAVYYCAAYWLFDYWGQGTTVTVSS
VL: DIQMTQSPSTLSASVGDRVTITCKASQDVGTAVDWYQQKPGQAPKLLIYWASTRHTGVPDRFSGSGSGTDFTLTISRLQPEDFAVYYCQQYNSYPLTFGQGTKVDIK
modifications: mc-val-cit-PAB-MMAE (maleimide reagent) conjugated after TCEP reduction; average DAR 3.5 (±0.2); attachment residues not given
B2: AB-05-mc-val-cit-PAB-MMAE (antibody, human IgG1, V domains shown)
VH: B1 VH
VL: B1 VL with S93A, P95S
modifications: mc-val-cit-PAB-MMAE (maleimide reagent) conjugated after TCEP reduction; average DAR 3.5 (±0.2); attachment residues not given
B3: AB-03-mc-val-cit-PAB-MMAE (antibody, human IgG1, V domains shown)
VH: B1 VH with A98G, Y99G, L101T
VL: B1 VL with Y91F, N92T, S93R
modifications: mc-val-cit-PAB-MMAE (maleimide reagent) conjugated after TCEP reduction; average DAR 3.5 (±0.2); attachment residues not given
B4: AB-04-mc-val-cit-PAB-MMAE (antibody, human IgG1, V domains shown)
VH: B1 VH with A98G, Y99A, L101T, F102M
VL: B1 VL with Y91F, N92T, S93R
modifications: mc-val-cit-PAB-MMAE (maleimide reagent) conjugated after TCEP reduction; average DAR 3.5 (±0.2); attachment residues not given
B5: AB-04 (antibody, human IgG1, V domains shown)
VH: B1 VH with A98G, Y99A, L101T, F102M
VL: B1 VL with Y91F, N92T, S93R
notes: Variable domains only; Expressed as human IgG1 (G1m3) / kappa (Km3)
B6: AB-03 (antibody, human IgG1, V domains shown)
VH: B1 VH with A98G, Y99G, L101T
VL: B1 VL with Y91F, N92T, S93R
notes: as for B5
B7: AB-05 (antibody, human IgG1, V domains shown)
VH: B1 VH
VL: B1 VL with S93A, P95S
notes: as for B5
B8: AB-02 (antibody, human IgG1, V domains shown)
VH: B1 VH
VL: B1 VL
notes: as for B5
B9: AB-09-mc-val-cit-PAB-MMAE (antibody, IgG1, V domains shown)
VH: QVQLVESGGGVVQPGRSLRLSCAASGFTFSNYVMHWVRQAPGKGLEWVAIIWYDGSNKYYADSVKGRFTISRDNSKNTLYLQMNSLRAEDTAVYYCAGGYNWNYEYHYYGMDVWGQGTTVTVSS
VL: DIQMTQSPSSLSASVGDRVTITCRASQGITNYLAWFQQKPGKAPKSLIYAASSLQSGVPSKFSGSGSGTDFSLTISSLQPEDFATYYCQQYNSYPITFGQGTRLEIK
modifications: mc-val-cit-PAB-MMAE (maleimide reagent) conjugated after TCEP reduction; average DAR 3.5 (±0.2); attachment residues not given
B10: AB-08-mc-val-cit-PAB-MMAE (antibody, V domains shown)
VH: QVQLVESGGGVVQPGRSLRLSCAASGFAFSRYGMHWVRQAPGKGLEWVAVIWYDGSNKYYADSVKGRFTISRDNSKNTQYLQMNSLRAEDTAVYYCARGGDFLYYYYYGMDVWGQGTTVTVSS
VL: DIQMTQSPSSLSASVGDRVTITCRASQGISNYLAWYQQKTGKVPKFLIYEASTLQSGVPSRFSGGGSGTDFTLTISSLQPEDVATYYCQNYNSAPFTFGPGTKVDIK
modifications: mc-val-cit-PAB-MMAE (maleimide reagent) conjugated after TCEP reduction; average DAR 3.5 (±0.2); attachment residues not given

Tests used:
[1] = target: PSMA on PSMA-positive LNCaP (clone FGC) and C4-2 cells; assay: cell-based or functional assay
[2] = target: T1, recombinant human PSMA (R&D Systems) (human, UniProt Q04609 44-750); assay: SPR (Biacore T200), antibody captured on Protein A chip, recombinant human PSMA as analyte, 25 C
T1 construct: Bought protein used as the Biacore analyte; also called PSMA antigen; PSMA analyte

[3] = target: T1, recombinant human PSMA (R&D Systems); assay: SPR (Biacore T200), relative to AB-01 on the same chip
[4] = target: T1, recombinant human PSMA (R&D Systems); assay: SPR (Biacore T200), antibody captured on Protein A chip, recombinant human PSMA as analyte, 25 C; remark: listed apart in the source
[5] = target: T1, recombinant human PSMA (R&D Systems); assay: as above; remark: listed apart in the source

T1 sequence (Q04609 44-750 limits assumed): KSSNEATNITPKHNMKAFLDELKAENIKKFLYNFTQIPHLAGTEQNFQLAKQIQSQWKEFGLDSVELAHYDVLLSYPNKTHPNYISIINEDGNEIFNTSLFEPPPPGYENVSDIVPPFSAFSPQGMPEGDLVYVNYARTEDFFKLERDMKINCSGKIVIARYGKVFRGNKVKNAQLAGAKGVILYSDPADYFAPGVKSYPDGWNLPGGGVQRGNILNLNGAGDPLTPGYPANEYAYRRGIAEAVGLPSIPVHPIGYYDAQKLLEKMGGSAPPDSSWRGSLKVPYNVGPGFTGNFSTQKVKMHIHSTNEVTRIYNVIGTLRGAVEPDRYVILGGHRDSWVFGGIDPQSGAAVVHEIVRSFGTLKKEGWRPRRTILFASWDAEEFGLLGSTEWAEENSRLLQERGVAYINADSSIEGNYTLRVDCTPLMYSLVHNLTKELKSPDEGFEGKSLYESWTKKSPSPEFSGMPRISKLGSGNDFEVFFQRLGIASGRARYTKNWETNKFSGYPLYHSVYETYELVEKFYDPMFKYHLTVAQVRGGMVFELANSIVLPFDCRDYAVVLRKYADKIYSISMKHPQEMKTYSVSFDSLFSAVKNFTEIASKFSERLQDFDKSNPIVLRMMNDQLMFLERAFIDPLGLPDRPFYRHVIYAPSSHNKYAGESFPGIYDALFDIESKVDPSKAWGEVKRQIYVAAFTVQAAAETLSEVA

| Binder | IC50 (nM), anti-proliferative effect on C4-2 cells (CellTiter Glo viability) [1] [nM] | IC50 (nM), anti-proliferative effect on LNCaP cells (CellTiter Glo viability) [1] [nM] | other results |
| --- | --- | --- | --- |
| B1 | 0.18 | 0.61 |  |
| B2 | 0.41 | 1.27 |  |
| B3 | 0.22 | 0.7 |  |
| B4 | 0.21 | 0.67 |  |
| B5 |  |  | Kd [2]: 0.354 nM; Relative KD [3]: 1.56 |
| B6 |  |  | Kd [4]: 0.245 nM |
| B7 |  |  | Kd [5]: 0.224 nM |
| B8 |  |  | Kd [2]: 0.28 nM; Relative KD [3]: 1.98 |
| B9 | 0.24 | 0.89 |  |
| B10 | 0.31 | 1.03 |  |
